B1: PSMα2 sequence IIAGIIKFIK (10-residue array peptide) (peptide)
peptide: IIAGIIKFIK
notes: source: 10-residue peptide immobilized on a microarray chip; maker not clearly stated
B2: PSMα3 sequence FVAKLFKFFK (10-residue array peptide) (peptide)
peptide: FVAKLFKFFK
notes: as for B1
B3: PSMα2 sequence GIIKFIKGLI (10-residue array peptide) (peptide)
peptide: GIIKFIKGLI
notes: as for B1

The target in this assay is Human wildtype α-syn, Alexa-fluor488-labelled (human, UniProt P37840 1-140). In words: peptide or protein array. As to conditions: both partners purified.
For B1, the binding result is “binds”.
Consider B2, for which the binding result was “binds”.
To B3 belongs “binds”.

These data come from PMC8584152, “The Bacterial Amyloids Phenol Soluble Modulins from Staphylococcus aureus Catalyze Alpha-Synuclein Aggregation” (International Journal of Molecular Sciences, 2021).
